Consider one sequence from paper PMC5500832 (Chemical Science, 2015).

The format of the series is physicochemical. To be noted: all pH values (3, 5, 7 and 9); 20 °C; over eight days; HPLC-MSMS; detection limit = 0.05%.

Turning to FFRKSIINFEKL [compound 3], the “Formation of α-GalCer (background hydrolysis, linker collapse)” value is “No formation of α-GalCer was detected”.
